Results reported in paper PMC11582362.

B1: full length ADAR1 p110, wild type (FLAG-tagged and HA-tagged copies) [human] / full length ADAR1 p110, wild type (FLAG-tagged and HA-tagged copies) [human] (parent)
chain 1: MAEIKEKICDYLFNVSDSSALNLAKNIGLTKARDINAVLIDMERQGDVYRQGTTPPIWHLTDKKRERMQIKRNTNSVPETAPAAIPETKRNAEFLTCNIPTSNASNNMVTTEKVENGQEPVIKLENRQEARPEPARLKPPVHYNGPSKAGYVDFENGQWATDDIPDDLNSIRAAPGEFRAIMEMPSFYSHGLPRCSPYKKLTECQLKNPISGLLEYAQFASQTCEFNMIEQSGPPHEPRFKFQVVINGREFPPAEAGSKKVAKQDAAMKAMTILLEEAKAKDSGKSEESSHYSTEKESEKTAESQTPTPSATSFFSGKSPVTTLLECMHKLGNSCEFRLLSKEGPAHEPKFQYCVAVGAQTFPSVSAPSKKVAKQMAAEEAMKALHGEATNSMASDNQPEGMISESLDNLESMMPNKVRKIGELVRYLNTNPVGGLLEYARSHGFAAEFKLVDQSGPPHEPKFVYQAKVGGRWFPAVCAHSKKQGKQEAADAALRVLIGENEKAERMGFTEVTPVTGASLRRTMLLLSRSPEAQPKTLPLTGSTFHDQIAMLSHRCFNTLTNSFQPSLLGRKILAAIIMKKDSEDMGVVVSLGTGNRCVKGDSLSLKGETVNDCHAEIISRRGFIRFLYSELMKYNSQTAKDSIFEPAKGGEKLQIKKTVSFHLYISTAPCGDGALFDKSCSDRAMESTESRHYPVFENPKQGKLRTKVENGEGTIPVESSDIVPTWDGIRLGERLRTMSCSDKILRWNVLGLQGALLTHFLQPIYLKSVTLGYLFSQGHLTRAICCRVTRDGSAFEDGLRHPFIVNHPKVGRVSIYDSKRQSGKTKETSVNWCLADGYDLEILDGTRGTVDGPRNELSRVSKKNIFLLFKKLCSFRYRRDLLRLSYGEAKKAARDYETAKNYFKKGLKDMGYGNWISKPQEEKNFYLCPV
chain 2: B1 chain 1

Variants of: B1
Experiment: co-immunoprecipitation (anti-FLAG IP, anti-HA western blot, bands quantified with ImageJ)
Settings: HEK293T cells, in the presence of RNases, n = 3, parent: 70, read off a plot

**Q.** Which response does the source give for chain 1 V452A D453Q W473V C478S here?
**A.** The response was 11%.
